# Laboratory results taken from the RNAGym collection of RNA variant scans (doi:10.7554/elife.80360).
# B1: CPEB3 Ribozyme (parent)
# chain: GGGGGCCACAGCAGAAGCGUUCACGUCGCGGCCCCUGUCAGAUUCUGGUGAAUCUGCGAAUUCUGCUGU
# Variants of: B1
# Assay: self-cleavage, relative activity (ratio to wild type); higher = more cleavage; co-transcriptional
row,Variant,self-cleavage
1,A8C G17C,0.165
2,A8C G17U,0.444
3,A8C G19A,0.189
4,A8C G25A,0.148
5,A8C G25C,0.113
6,A8C G28C,0.122
7,A8C G28U,0.154
8,A8C G30A,0.951
9,A8C G30C,0.758
10,A8C G30U,0.492
11,A8C G31C,0.267
12,A8C G31U,0.664
13,A8C G37A,0.207
14,A8C G37U,0.257
15,A8C G41A,0.89
16,A8C G41U,0.78
17,A8C G47A,1.02
18,A8C G48C,1.02
19,A8C G48U,1.02
20,A8C G56A,0.999
21,A8C G56C,0.83
22,A8C G58A,0.944
23,A8C G65A,0.928
24,A8C G65U,0.676

row,Variant,self-cleavage
1,A8C G68C,1
2,A8C G68U,1.02
3,A8C U20A,0.114
4,A8C U20C,0.166
5,A8C U21C,0.854
6,A8C U36A,0.205
7,A8C U36C,0.819
8,A8C U36G,0.192
9,A8C U38C,0.9
10,A8C U44A,0.944
11,A8C U44C,0.896
12,A8C U46A,0.981
13,A8C U46C,0.979
14,A8C U49A,1.06
15,A8C U49C,1
16,A8C U49G,1.01
17,A8C U53A,0.919
18,A8C U53C,0.902
19,A8C U53G,0.89
20,A8C U55A,0.969
21,A8C U55G,0.851
22,A8C U61C,0.776
23,A8C U61G,0.937
24,A8C U62A,0.898

row,Variant,self-cleavage
1,A8C U62C,0.841
2,A8C U62G,0.9
3,A8C U64C,0.86
4,A8C U64G,0.892
5,A8C U67A,1.04
6,A8C U69A,1.01
7,A8C U69G,1.04
8,A8G,0.929
9,A8G A10U,0.69
10,A8G A13U,0.0712
11,A8G A15C,0.0691
12,A8G A15U,0.144
13,A8G A16U,0.457
14,A8G A23G,0.623
15,A8G A23U,0.858
16,A8G A40C,0.103
17,A8G A40G,0.723
18,A8G A40U,0.333
19,A8G A42C,0.59
20,A8G A42G,0.536
21,A8G A42U,0.622
22,A8G A51C,0.706
23,A8G A52C,0.768
24,A8G A52G,0.902

row,Variant,self-cleavage
1,A8G A52U,0.803
2,A8G A59C,0.162
3,A8G A59G,0.897
4,A8G A59U,0.401
5,A8G A60G,0.393
6,A8G A60U,0.25
7,A8G C9G,0.915
8,A8G C9U,0.954
9,A8G C12A,0.175
10,A8G C12G,0.133
11,A8G C12U,0.444
12,A8G C18A,0.12
13,A8G C18G,0.0214
14,A8G C18U,0.207
15,A8G C22A,0.136
16,A8G C22G,0.0752
17,A8G C22U,0.074
18,A8G C24A,0.446
19,A8G C24G,0.15
20,A8G C24U,0.174
21,A8G C27A,0.0861
22,A8G C27U,0.0734
23,A8G C29A,0.647
24,A8G C29G,0.496

row,Variant,self-cleavage
1,A8G C29U,0.761
2,A8G C32A,0.701
3,A8G C33A,0.73
4,A8G C33U,0.833
5,A8G C34G,0.665
6,A8G C35A,0.217
7,A8G C35G,0.341
8,A8G C39A,0.242
9,A8G C39G,0.537
10,A8G C45A,0.8
11,A8G C45U,0.8
12,A8G C54A,0.331
13,A8G C54G,0.343
14,A8G C54U,0.805
15,A8G C57A,0.126
16,A8G C57G,0.203
17,A8G C63A,0.253
18,A8G C63G,0.164
19,A8G C63U,0.612
20,A8G C66A,0.249
21,A8G C66G,0.294
22,A8G C66U,0.5
23,A8G G11A,0.26
24,A8G G11C,0.0914

row,Variant,self-cleavage
1,A8G G11U,0.189
2,A8G G14A,0.13
3,A8G G14C,0.125
4,A8G G14U,0.0849
5,A8G G17A,0.0671
6,A8G G17C,0.0831
7,A8G G17U,0.103
8,A8G G19C,0.161
9,A8G G19U,0.0891
10,A8G G25A,0.113
11,A8G G25C,0.0474
12,A8G G25U,0.1
13,A8G G28A,0.0955
14,A8G G28C,0.102
15,A8G G28U,0.137
16,A8G G30A,0.861
17,A8G G30C,0.602
18,A8G G30U,0.335
19,A8G G31A,0.865
20,A8G G31U,0.649
21,A8G G37C,0.123
22,A8G G41A,0.222
23,A8G G41C,0.304
24,A8G G41U,0.254

row,Variant,self-cleavage
1,A8G G47C,0.945
2,A8G G47U,0.92
3,A8G G48A,0.939
4,A8G G48U,0.943
5,A8G G50C,0.791
6,A8G G56A,0.562
7,A8G G56C,0.233
8,A8G G56U,0.446
9,A8G G58C,0.843
10,A8G G65A,0.224
11,A8G G68A,0.912
12,A8G G68C,0.851
13,A8G G68U,0.841
14,A8G U20C,0.09
15,A8G U20G,0.0536
16,A8G U21C,0.584
17,A8G U26A,0.644
18,A8G U26C,0.325
19,A8G U26G,0.622
20,A8G U36A,0.135
21,A8G U38C,0.696
22,A8G U43A,0.401
23,A8G U43G,0.398
